Experimental data published in publication PMC11600153, “Mg^2+-Ion Dependence Revealed for a BAHD 13-O-β-Aminoacyltransferase from Taxus Plants” (JACS Au, 2024).

Substrate: CC(C)=C[C@H](N)[C@@H](O)C(=O)O
Test: LC/ESI-MS/MS product quantification, Michaelis-Menten fit
Format: biochemical, Brevibacillus parabrevis
Details: 7 varied 0.05-1 mM, CoA 1 mM, ATP 1 mM, MgCl2, phosphate pH 8, 31 °C

B1: PheAT (truncated TycA module of tyrocidine synthase) (Brevibacillus parabrevis) (protein)
chain: MLANQANLIDNKRELEQHALVPYAQGKSIHQLFEEQAEAFPDRVAIVFENRRLSYQELNRKANQLARALLEKGVQTDSIVGVMMEKSIENVIAILAVLKAGGAYVPIDIEYPRDRIQYILQDSQTKIVLTQKSVSQLVHDVGYSGEVVVLDEEQLDARETANLHQPSKPTDLAYVIYTSGTTGKPKGTMLEHKGIANLQSFFQNSFGVTEQDRIGLFASMSFDASVWEMFMALLSGASLYILSKQTIHDFAAFEHYLSENELTIITLPPTYLTHLTPERITSLRIMITAGSASSAPLVNKWKDKLRYINAYGPTETSICATIWEAPSNQLSVQSVPIGKPIQNTHIYIVNEDLQLLPTGSEGELCIGGVGLARGYWNRPDLTAEKFVDNPFVPGEKMYRTGDLAKWLTDGTIEFLGRIDHQVKIRGHRIELGEIESVLLAHEHITEAVVIAREDQHAGQYLCAYYISQQEATPAQLRDYAAQKLPAYMLPSYFVKLDKMPLTPNDKIDRKALPEPDLTANQSQAAYHPPRTETESILVSIWQNVLGIEKIGIRDNFYSLGGDSIQAIQVVARLHSYQLKLETKDLLNYPTIEQVALFVKSTTRKSD
notes: truncated TycA (PheAT)
Km: 112 µM
kcat: 0.0083 s⁻¹
